One may read the stoichiometry N as a count of units in the complex or per binding partner.

From article doi:10.1101/2020.10.29.360719, “Phase separation of the LINE-1 ORF1 protein is mediated by the N-terminus and coiled-coil domain” (bioRxiv, 2020) come the findings set out here.

For series [1], the target named is T1, ORF1_(53-152) (coiled-coil domain of ORF1) (human, UniProt Q9UN81 53-152).
T1 construct: Non-labeled in the NMR experiments; also called full-length coiled-coil domain; trimeric coiled-coil domain; source: E. coli BL21STAR(DE3), purified (Ni-NTA, Sephacryl S-300 gel filtration)
T1 sequence (looked up): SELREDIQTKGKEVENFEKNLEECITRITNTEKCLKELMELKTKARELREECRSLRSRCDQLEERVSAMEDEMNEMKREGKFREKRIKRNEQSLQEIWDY
Put plainly: NMR titration; 15N-1H HSQC and 15N relaxation of the 15N-enriched N-terminal construct with non-labeled coiled-coil construct added (equimolar, 700 uM each in Fig. 3C); 25 °C; 20 mM HEPES pH 7.25 or 20 mM MES pH 6.0, 200 mM NaCl, 1 mM DTT. Conditions: both partners purified.

Series [2] concerns the molecule itself. Put plainly: SEC; gel filtration, GE HiPrep 16/60 Sephacryl S-300 HR, 20 mM Tris pH 8.0, 1 M NaCl, 1 mM DTT; self-association (trimer). Background: In gel filtration, larger molecules generally elute earlier.

B1: ORF1_(1-53) (disordered N-terminal region of ORF1) (domain or fragment, human, UniProt Q9UN81 1-53, looked up)
chain: MGKKQNRKTGNSKTQSASPPPKERSSSPATEQSWMENDFDELREEGFRRSNYS
notes: LINE-1 ORF1 protein, human, residues 1-53; 15N (and for assignment 13C) isotope enriched for NMR; also called N-terminus; N-terminal region (1-53); source: E. coli BL21STAR(DE3), purified (Ni-NTA, heat 70°C, gel filtration); not shown: histidine tag, C-terminal, kept
Turning to B1, the binding result in series [1] is “binds”.

B2: ORF1_(1-131) (domain or fragment, human, UniProt Q9UN81 1-131, looked up)
chain: MGKKQNRKTGNSKTQSASPPPKERSSSPATEQSWMENDFDELREEGFRRSNYSELREDIQTKGKEVENFEKNLEECITRITNTEKCLKELMELKTKARELREECRSLRSRCDQLEERVSAMEDEMNEMKRE
notes: LINE-1 ORF1 protein, human, residues 1-131 (N-terminus and coiled-coil domain lacking the C-terminal 22 residues); source: E. coli BL21STAR(DE3), purified (Ni-NTA, gel filtration)
Take B2: the “stoichiometry N” value in series [2] turned out to be 3.

B3: ORF1_(1-141) (domain or fragment, human, UniProt Q9UN81 1-141, looked up)
chain: MGKKQNRKTGNSKTQSASPPPKERSSSPATEQSWMENDFDELREEGFRRSNYSELREDIQTKGKEVENFEKNLEECITRITNTEKCLKELMELKTKARELREECRSLRSRCDQLEERVSAMEDEMNEMKREGKFREKRIKR
notes: LINE-1 ORF1 protein, human, residues 1-141 (N-terminus and coiled-coil domain lacking the C-terminal 12 residues); source: E. coli BL21STAR(DE3), purified (Ni-NTA, gel filtration)
For B3, in series [2], the “stoichiometry N” value stood at 3.

B4: full-length ORF1_(1-338) protein (LINE-1 ORF1 protein) (natural protein, human, UniProt Q9UN81 1-338, looked up)
chain: MGKKQNRKTGNSKTQSASPPPKERSSSPATEQSWMENDFDELREEGFRRSNYSELREDIQTKGKEVENFEKNLEECITRITNTEKCLKELMELKTKARELREECRSLRSRCDQLEERVSAMEDEMNEMKREGKFREKRIKRNEQSLQEIWDYVKRPNLRLIGVPESDVENGTKLENTLQDIIQENFPNLARQANVQIQEIQRTPQRYSSRRATPRHIIVRFTKVEMKEKMLRAAREKGRVTLKGKPIRLTADLSAETLQARREWGPIFNILKEKNFQPRISYPAKLSFISEGEIKYFIDKQMLRDFVTTRPALKELLKEALNMERNNRYQPLQNHAKM
notes: LINE-1 (L1) ORF1 protein, human, residues 1-338, 40 kDa; No tag removal is described; The histidine tag is only named in the legends for ORF1_(1-53); also called L1 ORF1 protein; wild-type ORF1; source: E. coli BL21STAR(DE3), purified (Ni-NTA, Sephacryl S-300 gel filtration)
As to B4, the “stoichiometry N” value in series [2] was 3.

B5: ORF1_(1-46) (domain or fragment, human, UniProt Q9UN81 1-46, looked up)
chain: MGKKQNRKTGNSKTQSASPPPKERSSSPATEQSWMENDFDELREEG
notes: LINE-1 ORF1 protein, human, residues 1-46; Observed by 15N-1H HSQC, so isotope enriched; also called truncated ORF1_(1-46) construct; source: E. coli BL21STAR(DE3), purified (Ni-NTA, gel filtration)
For the molecule B5, the binding result in series [1] is “binds”.
